From patent US12012446B2, “Epstein-Barr virus antibodies and uses thereof” (priority 2017, dated 2024)

B1: HB7: murine anti-EBV gp350 mAb, IgG1 κ; SEQ ID NO: 112 / 113 (antibody, V domains shown)
VH: AELVRPGASVKLSCKALGYTFTDYEMHWVKQTPVHGLEWIGTISPGRSGTAYNQKFKGKATLTADKSSRTAYMELNSLTSEDSAVYYCSRYGHPSYLDVWGAGTTVTVSSAKTTPPSVYPLAPGSAAQTNSMVTLG
VL: KFMSTSVGDRVNITCKASQSVGNAVAWFQQKPGQSPKLLIYSASNRYTGIPDRFTGSGSGTDFTLTCNNMQSEDLADYFCQQYSSYPLTFGAGTKLELKRADAAPTV
modifications: heavy chain mAb HB7; light chain mAb HB7
B2: HB14: murine anti-EBV gp350 mAb, IgG1 κ; SEQ ID NO: 124 / 125 (antibody, V domains shown)
VH: SGAELVRPGASVNLSCKALGYTFTDYEMHWVKQTPVYGLEWIGTIHPRRGGTAYNQRFKGKAALTADKSSSTAYMELSSLTSEDSAVYYCARYGYPWYFDVWGAGTTVTVSS
VL: LSLPVSLGDQASISCRSSQSIVHDNGNTYLEWYLQKPGQSPKLLIYKVSNRFSGVLDKFSGSGSGTDFTLKISRVEAEDLGIYYCFQGSHVPPTFGGGTKLEIK
modifications: heavy chain mAb HB14; light chain mAb HB14
B3: HB8: murine anti-EBV gp350 mAb, IgG1 κ; SEQ ID NO: 114 / 115; HB18 has identical VH and VL (antibody, V domains shown)
VH: PELKKPGETVKISCKASGYSFTNYGMNWVKQAPGKGLKWMGWINTYTGEPTYADDFKGRFAFSLETSASTAFLQINNLKNEDTATYLCARYYYGSVYSAWFAYWGQGTLVTVSAAKTTPPSVYPLAPGSAAQTNSMVTLG
VL: LSLPVSLGDQASISCRSSQSIVHSNGNTYLEWYLQKAGQSPKLLIYKVSNRFSGVPDRFGGSGSGTDFTLKISRVEAEDLGVYYCFQGSHVPYTFGGGTKLEIKRADAAPTV
modifications: heavy chain mAb HB8; light chain mAb HB8
notes: murine anti-EBV gp350 mAb, IgG1 κ; HB18 has identical VH and VL
B4: HB10: murine anti-EBV gp350 mAb, IgG1 κ; SEQ ID NO: 118 / 119; non-nAb (protein)
chain 1: LSLPVSLGDQASISCRSSQSIVHSNGNTYLEWYLQKAGQSPKLLIYKVSNRFSGVPDRFGGSGSGTDFTLKISRVEAEDLGVYYCFQGSHVPYTFGGGTKLEIKRADAAPTV
chain 2: SSLSASLGDRVTISCRASQDIGNYLNWYQQKPDGTVKLLIYYTSRLHSGVPSRFSGSGSGTDYSLTISNLEEEDIATYFCQQGNTLPPTFGGGTKLEIKRADAAPTV
modifications: heavy chain mAb HB10; light chain mAb HB10
notes: murine anti-EBV gp350 mAb, IgG1 κ; non-nAb
B5: HB1: murine anti-EBV gp350 mAb, IgG1 κ; heavy chain SEQ ID NO: 102, light chain SEQ ID NO: 103; neutralizing (antibody, V domains shown)
VH: PGLVAPSQSLSITCTVSGFLLTTYGVHWVRQPPGKGLEWLGVIWAGGSTNYNSALMSRLSINKDISKSQVFLKMNSLQTDDTAMYYCTRDRGYGYLYAMDYWGQGTSVTVSSAKTTPPSVYPLAPGSAAQTNSMVTLG
VL: KFMSTSVGDRVSVTCKASQNVGTNVAWYQQKPGQSPKALIYSTSSRYTGVPDRFAGSGSGTDYTLTISNVQSEDLAEYFCQQYNTYPYTFGGGTRLDIKRADAAPTV
modifications: heavy chain mAb HB1; light chain mAb HB1
notes: murine anti-EBV gp350 mAb, IgG1 κ; neutralizing
B6: HB6: murine anti-EBV gp350 mAb, IgG1 κ; SEQ ID NO: 110 / 111 (antibody, V domains shown)
VH: PELRKPGETVKISCKASGYTFTDYSMHWVKQTPGKGLKWMGWINTRTGEPRYADDFKGRFAFSLETSASTAYLQINNLKNEDTATYFCAPYGYALDYWGQGTSVTVSSAKTTPPSVYPLAPGSAAQTNSMVTLG
VL: AILSASPGEKVTMTCRATSSVNYMHWYQQKPGSSPKPWIYATSNLASGVPARFSGSGSGTSYSLTISRVEAEDAATYYCQQWSSNPPTFGAGTKLELKRADAAPTV
modifications: heavy chain mAb HB6; light chain mAb HB6

How the values were obtained:
[1] = biological target: T1, purified EBV gp350/220 (recombinant EBV gp350 ectodomain) (Epstein-Barr virus, UniProt P03200); assay: Indirect ELISA on recombinant EBV gp350 ectodomain; format: binding; conditions: for ELISA binding to purified EBV gp350/220: purified antibodies 10 μg/ml; for ELISA binding strength to gp350, compared with m72A1 / parental antibody: soluble gp350 0.5 μg/ml
T1 construct: purified EBV gp350 ectodomain protein (AA 4-863); purchased Immune Technology Corporation
T1 sequence (P03200 4-863): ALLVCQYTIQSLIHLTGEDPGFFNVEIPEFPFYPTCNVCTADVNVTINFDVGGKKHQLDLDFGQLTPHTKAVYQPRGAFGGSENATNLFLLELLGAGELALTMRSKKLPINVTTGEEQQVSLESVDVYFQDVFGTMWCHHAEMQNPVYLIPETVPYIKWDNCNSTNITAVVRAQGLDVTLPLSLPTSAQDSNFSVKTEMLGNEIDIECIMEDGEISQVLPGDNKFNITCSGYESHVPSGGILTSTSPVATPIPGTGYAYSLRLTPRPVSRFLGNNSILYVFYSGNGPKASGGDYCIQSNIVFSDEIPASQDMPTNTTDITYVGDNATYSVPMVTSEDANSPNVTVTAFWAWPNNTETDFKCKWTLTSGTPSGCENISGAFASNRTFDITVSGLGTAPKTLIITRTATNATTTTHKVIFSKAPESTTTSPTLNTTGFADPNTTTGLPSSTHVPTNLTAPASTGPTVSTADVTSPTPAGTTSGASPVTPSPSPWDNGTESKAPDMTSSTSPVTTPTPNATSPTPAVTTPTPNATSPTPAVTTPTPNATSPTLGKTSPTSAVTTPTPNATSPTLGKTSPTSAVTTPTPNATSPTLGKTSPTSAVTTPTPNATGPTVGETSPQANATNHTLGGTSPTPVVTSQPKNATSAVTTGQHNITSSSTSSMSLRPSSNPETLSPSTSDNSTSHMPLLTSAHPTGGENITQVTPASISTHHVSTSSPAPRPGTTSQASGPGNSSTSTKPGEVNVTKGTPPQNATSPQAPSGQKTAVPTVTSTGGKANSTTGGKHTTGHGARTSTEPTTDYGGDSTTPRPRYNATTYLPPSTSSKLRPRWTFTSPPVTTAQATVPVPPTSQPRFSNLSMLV
Protocol: Briefly, immunoplates (Costar 3590; Corning Incorporated) were coated with 50 μl of 0.5 μg/ml recombinant EBV gp350 ectodomain (Immune Technology Corporation) diluted in 1× phosphate buffered saline (PBS, pH 7.4) and incubated overnight at 4° C. After washing three times with 1×PBS containing 0.05% (v/v) Tween 20 (washing buffer), plates were blocked with 100 μl washing buffer containing 2% (w/v) bovine serum albumin (BSA) (blocking buffer) then incubated for 1 h at room temperature and washed as above. 100 μl of hybridoma supernatant or 50 μl of 10 μg/ml purified mAbs was added to each well (in triplicate) and incubated for 2 h at room temperature. […] The plates were washed as described above, followed by incubation with 50 μl of goat anti-mouse IgG HRP-conjugated secondary antibody (1:2,000 diluted in 1×PBS) at room temperature for 1 h. The plates were washed again and 100 μl of chromogenic substrate 2,2′-azino-bis (3-ethylbenzothiazoline-6-sulphonic acid) (ABTS, Life Science Technologies) was added. The reaction was stopped using 100 μl of ABTS peroxidase stop solution containing 5% sodium dodecyl sulfate (SDS) in water. The absorbance was read at an optical density of 405 nm using an ELISA reader (Molecular Devices). All experiments were performed in triplicate and confirmed in three independent experiments.
ELISA binding of anti-gp350 and anti-gH/gL to soluble gp350 and gH/gL proteins was performed. Soluble EBV gp350 and gH/gL proteins were used as the target antigen at 0.5 μg/ml. 1× phosphate buffered saline (PBS) was used as negative (not shown) control. Bound antibodies were detected using HRP-conjugated anti-mouse or anti-human IgG (1:2,000).

[2] = system: EBV-eGFP infection of Raji cells; assay: EBV neutralization assay in Raji cells; format: cell-based, Epstein-Barr virus; conditions: for neutralization of EBV in Raji cells (in words): spin-column purified mAbs, 12.5, 25, 50 and 100 μg/ml
Protocol: EBV neutralization assay was performed in Raji cells as previously described (47). Briefly, purified individual anti-gp350 mAbs were incubated with purified AGS-EBV-eGFP (titer calculated to infect at least 8% of HEK293 cells seeded in 100 μl of serum-free DMEM) for 2 hours at 37° C. To represent EBV infection of B cells, the pre-incubated anti-gp350 mAbs/AGS-EBV-eGFP were used to infect 5×10^5 Raji cells seeded in a 96-well plate for 2 hours at 37° C. Neutralizing 72A1 and non-neutralizing 2L10 anti-gp350 mAbs served as positive and negative controls, respectively. Infected cells were washed three times with PBS to remove any unbound viruses and antibodies. Washed, infected cells were incubated in 96-well plates at 37° C. for 48 hours post-infection and the number of eGFP+ (infected) cells was determined using flow cytometry. All dilutions were performed in quintuplicate and the assays were repeated three times. Antibody EBV neutralization activity was calculated as: % neutralization=(EBValone−EBVmAb)/(EBValone)×100.
However, this antibody was recently reported to be a mixture of both functional and non-functional antibodies (50). […] The percentage of eGFP+ cells (percent infection) was determined using flow cytometry as described (47). The nAbs 72A1 and E1D1 were used as positive controls, whereas the anti-gp350 non-neutralizing mAb 2L10 and KSHV gH/gL mAb 54A1 were used as negative controls. Because HB4, HB13, HB15, HB16, HB19, HB21, and HB23 were confirmed to be polyclonal based on isotyping and/or sequence data, they were eliminated from further consideration in the neutralization assay. HB18 was not used in neutralization experiments because it was identical to HB8.
The purified eGFP-tagged-EBV was titered in Raji cells to determine percent EBV infection using a range of volumes (50-250 μl) (FIG. 5A). Then initial neutralization of EBV was conducted in Raji cells using purified mAbs at various concentrations (12.5, 25, 50, and 100 μg/ml).
EBV-eGFP+ cells were enumerated using flow cytometry.

[3] = biological target: T2, EBV gp350 stably expressed on CHO cells (Epstein-Barr virus, UniProt P03200); assay: Epitope mapping by competitive cell binding assay with biotinylated mAbs
T2 construct: stably co-transfected with full-length pCAGGS-gp350/220 and pCI-puro vector; expressed in transfected cells; host or cells: CHO cells
T2 sequence (P03200 whole entry): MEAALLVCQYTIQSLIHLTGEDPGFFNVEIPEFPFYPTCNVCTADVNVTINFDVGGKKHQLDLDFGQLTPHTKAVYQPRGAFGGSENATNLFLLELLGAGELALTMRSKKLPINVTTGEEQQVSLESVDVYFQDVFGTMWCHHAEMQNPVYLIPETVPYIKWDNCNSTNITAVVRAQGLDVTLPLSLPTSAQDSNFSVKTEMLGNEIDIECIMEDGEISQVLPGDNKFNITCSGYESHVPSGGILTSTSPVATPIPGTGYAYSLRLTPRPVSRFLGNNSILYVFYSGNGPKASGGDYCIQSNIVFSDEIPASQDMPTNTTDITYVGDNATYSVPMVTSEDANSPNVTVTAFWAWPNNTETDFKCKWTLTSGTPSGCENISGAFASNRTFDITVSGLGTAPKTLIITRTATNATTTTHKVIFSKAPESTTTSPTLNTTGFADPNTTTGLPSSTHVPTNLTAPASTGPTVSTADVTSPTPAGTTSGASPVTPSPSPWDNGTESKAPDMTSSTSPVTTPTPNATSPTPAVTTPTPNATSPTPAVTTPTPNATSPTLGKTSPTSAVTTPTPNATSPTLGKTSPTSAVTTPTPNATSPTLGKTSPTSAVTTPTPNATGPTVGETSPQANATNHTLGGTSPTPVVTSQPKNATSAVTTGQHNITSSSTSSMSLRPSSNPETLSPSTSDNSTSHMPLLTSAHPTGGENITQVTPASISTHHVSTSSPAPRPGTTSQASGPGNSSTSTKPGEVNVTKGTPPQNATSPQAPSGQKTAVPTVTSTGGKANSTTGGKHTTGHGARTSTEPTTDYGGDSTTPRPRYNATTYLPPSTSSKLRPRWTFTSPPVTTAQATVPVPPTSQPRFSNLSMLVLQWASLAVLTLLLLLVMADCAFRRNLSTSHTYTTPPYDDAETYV
Protocol: To evaluate conformation epitope mapping of the selected mAbs, competitive binding assays were conducted using biotinylated mAbs. A one-step antibody biotinylation kit (MACS Miltenyi Biotec) was used to biotinylate the mAbs. Approximately 1×10^5 CHO cells that stably expressed EBV gp350 were incubated for 2 hours with serially diluted ([…]) unlabeled competitor mAbs and non-specific anti-KSHV gH/gL 54A1 mAb. After being washed with PBS, the cells were incubated for 2 hours in the presence of 1 μg/ml biotinylated mAbs. To determine maximum binding, cells in which the biotinylated mAb was added in the absence of unlabeled mAbs were included in the assay. Cells were washed with PBS, followed by incubation for 1 hour with anti-biotin AF488 at a dilution of 1:500. After the final wash in PBS, cells were resuspended in 1% paraformaldehyde and analyzed by flow cytometry as described above. Percentage of inhibition was calculated as: 100−[(% fluorescent cells with competitor mAb/% fluorescent cells without competitor mAb)×100]. The complete prevention of binding of a biotinylated mAb by its unlabeled counterpart was used as a validation of the assay, as previously described (84).
At least seven unique CD21 binding epitopes on EBV gp350 have been predicted (Table 3).

| Molecule | ELISA binding to purified EBV gp350/220 [1] | ELISA binding strength to gp350, compared with m72A1 / parental antibody [1] | neutralization of EBV in Raji cells (in words) [2] | further results |
| --- | --- | --- | --- | --- |
| B1 | + | equal to or greater than that of the positive control, m72A1 | failed to neutralize EBV infection |  |
| B2 | + | equal to or greater than that of the positive control, m72A1 | failed to neutralize EBV infection |  |
| B3 | + |  | failed to neutralize EBV infection |  |
| B4 | + |  | failed to neutralize EBV infection | blocking of EBV infection of Raji cells (nAb activity) ([2]; protein G and size-exclusion chromatography-purified mAbs, highest concentration 100 μg/ml): < 50%; % inhibition of biotinylated nAbs (biotinylated m72A1) ([3]; unlabeled mAb 67.5 μg/ml, biotinylated m72A1 1 μg/ml): 13%; % inhibition of biotinylated nAbs (biotinylated m72A1) ([3]; unlabeled mAb 125 μg/ml, biotinylated m72A1 1 μg/ml): 16%; % inhibition of biotinylated nAbs (biotinylated m72A1) ([3]; unlabeled mAb 250 μg/ml, biotinylated m72A1 1 μg/ml): 14%; % inhibition of biotinylated nAbs (biotinylated m72A1) ([3]; unlabeled mAb 500 μg/ml, biotinylated m72A1 1 μg/ml): 12% |
| B5 | + |  | dose-dependent neutralization | blocking of EBV infection of Raji cells (in words) ([2]; protein G and size-exclusion chromatography-purified mAbs, 12.5-100 μg/ml): blocked EBV infection in a dose-dependent manner; competitive binding versus m72A1 and h72A1 (in words) ([3]; biotinylated antibodies): bound targets that overlapped with those of both m72A1 and h72A1; antigen binding competition with biotinylated m72A1 (in words) ([3]; biotinylated m72A1 1 μg/ml, unlabeled mAbs 500-67.5 μg/ml): Antigen binding competition was observed |
| B6 | + |  | failed to neutralize EBV infection |  |
